Assay: yeast display, Sf9 membrane polyspecificity reagent, FACS + sequencing; frameworks hold sequencing errors
Method in brief: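 Genes from sorted yeast were amplified by colony PCR, read by MiSeq 2 × 250 sequencing and filtered on CDR length. These cells carried a synthetic nanobody library in Saccharomyces cerevisiae BJ5465 and were sorted by FACS into low and high (top ~1%) gates on anti-HA and streptavidin fluorescence. Polyreactivity is labelled according to the gate of origin.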

Sequence	polyreactivity (PSR sort gate)
QVQLVESGGGLVQAGGSLRLSCAASGSTIYLYDMGWYRQAPGKERELVATITSGTSTTYADSVKGRFTISRDYAKNTVYLQMNSLKPADTAVYYCNATDVGIITVGYGHGGYYWGQGTQVTVSS	low polyreactivity
QVQLVESGGGLVQAGGSLRLSCAASGNIFTNNAMGWYRQAPGKEREFVAAITRSGGSTSYADSVKGRFTISRDNAKNTVYLQMISLNPEDTAVYYCAATGYRYRRIYGFDYWGQGTQVTVSS	high polyreactivity
QVQLVESGGGLVQAGGSLRLSCAASGFIFGTYAMGWYRHAPGKERELVAAISVGGGSTYYADSVKGRFTISRDNAKNTVYLQMNSLKPEDTAVYYCAAVQLFQKHQITYVANEYWGQGTQVTVSS	low polyreactivity
QVQLVESGGGLFQAGGSLRLSCAATGRTYEGNAMGWSIQAPGKERELVAAITSGGRTNYADSVKGRFSISRDNAKNTVDLQMNSLKPEDTAVYYCAVETRDRSNYFPGQAYDYWGQGTQVTVSS	low polyreactivity
QVQLVESGGALVQAGGSLRLSCAASGSIFYWYAMGWYRQAPGKEREFVAGITGRGGSTYYADSVKGRFTISRDNAKNTVYLQMNSLKPEDTAVYYADFVKYGKYYQRYDYWGQGTQVTVSS	high polyreactivity
QVQLEESGGGLVQAGGRLRLSCAASGRTFGRYAMGWDREPPGKERELVAAIRSGGSTYYADSVKGRLTISRDNAKNTVYFQMNSVKQADTAVYYCAADIARHLTGFAYYGLDYWGQGTQVTVSS	low polyreactivity
QDQLVESGGGLVQAGGSLRLSCAASGFTFRSNAMGWYRQAPGKERELVAAISRTGGSTYYADSVKGRFTISRDNAKNTVYLQMNSLKPEETAVYYCNTVYGKSHYGQAMDSWGQGTQVTVSS	high polyreactivity
QVQLVESGGGLVQAGGSLRLSSAASGRTFRHYALGWSRQAPGKERELVAVISWRGTGTYYADSVKGRFTISRDNAKNTVYLQMTSLKPEDTSVYYCATVWGLGYRMNYWGQGTQVTVSS	high polyreactivity
QVQLVESGGGLVQAGGSLRLSCAASGSTFIYYAMGWYRQAPGKERELVAGISIRGGSTYADSVKGRFTISRDNAKNTVYLQKNSLKPEDTAVYFCNAYKRIKANGYAIRYYYWGQGTQVTVSS	high polyreactivity
QVQLQESGGGLVQASGSPRLSCAASGNIFDADIMGWYRQAPGKQCELVASITDGGSTNYADSEKGRFTISSDNAKNTVYLQMNSLKPEDTAVYYCAAIAYPDIPTYFDYDSDYFYWGQGTHVTVSS	high polyreactivity
QVQLVESGGGIVQARGSLRLTSAASGITFQYYTMGWYRQAPGKERELVAGISDSDGDTYYADSVKGRFTISRDNAKKTVFLQMNSLKPEDTALYYCAADGYAYYRATTRFDYWGQGTQVTLSS	high polyreactivity
QVQLVESGGGLVQAGGSLRLSCAASGITFDEYAMGWYRQAPGKERELVAAISWRGAITYYADSVKGRFTISRDNAKNTVYLQMNSLKPEDTAGYYCNADRAYTYVRYYITQDFGYWGQGTQVTVSS	high polyreactivity
QVQLQESRGGLVQAVRSLRLSCAASGTILYSLGMGWYRQAPGKRREFVASITRGTTTNYAESVKGRFTISRDNAKKTVYPQMNSLKAEDTGVSFCAGPPFGVSSYDYWGQGNQVTVSS	low polyreactivity
QVQLVESRGGLVQAGGSLRLSCAASGGTFSLNAMGWYRQAPGKERELVAANSKRSSTTYYADSVKGRFTISRDNAKNTVYLQMNSLKPEDTAVYYCAARVLRSRKPGPGYDYWGQGTQVTVSS	high polyreactivity
QVQLVESGGGLVQAGGSLRLSCAASGRILRYKAMGWYRQAPGKDRELVAAMSSGGSTYADSVKGRFTISRDNAKNTVYLQMNSLKPEDTAVYYCAVQSTRRGPYSWPYGYWGQGTQVTVSS	high polyreactivity
QVQIVESGGGLVQAGRSLRLSCAASGSTFEFYAMGWYRQAPGKEREFVAGITSSGVTTYYADSVKGRFTISRDNAKYTVYLQMNSLKPVDTAVYYCAATDVVYSWFFLVYIPYDYWGQGTQVTVSS	low polyreactivity
QVQLVESGGGLVQAGGSLRLSCAASGSNWSYAMGWYSQAPGKESVLVATISRRGGSTYYADSVKGRFTISRDNAKNTVYLQMNSLKPEDTAVYYCAAAESASSFRFDYWGQGTQETVSS	high polyreactivity
QVQLVESGGGLVQAGGSLRLSCAASGSTFEYYAMGWYRQAPGKERELVATISIDGRTNYADSVKGRFTISRDNAKNTVYLQMNSLKPEDTAVYYCAADTNWSPGYIMYYRSDYWGQGTQVTVSS	low polyreactivity
QVQLVESGGGLVQAGGSLRLSCAASGRTFFKNAMGWYRQAPGKERELVAAITSSGGTTYYADSVKGRFTISRDNAKNTVYLQMNSLKPEDTAVYYCATRTYPIRYGYGYWGQGTQVTVSS	high polyreactivity
QVQLVESGVGLLQAGGSLRLSCAAYGYTMGLYRQAPGKEREFVAAINQTGGSTSADSVKGRFTISRDNANNTVYLQLNSLKPEDTAVYYCAADISVYSDSHDVSINYRYDYWGLGTQVTVSS	low polyreactivity
QVQLVESGGGLVQAGGSLRLSCAASGSTFYFYVMGWYRQAPGKERELVARISWSGGSTYYADSVKGRFTISRDNAKNTVYLQMNSLKPEDTAVYYCARQYKYPSSGEYDSWGQGTQVTVSS	low polyreactivity
QVQLVESGGGLVQAGGSLRLSCAASGSIFKDNAMGWYRQAPGKERELVAAITSGASTNYADSVKGRFTISRDNAKNTVYLQMNSLKPEVTAVYYCAAVLAGGVYWVVHYDYWGQGTQVTVSS	low polyreactivity

Sequence	polyreactivity (PSR sort gate)
QVQLVESGGGLVQAGGSLRLSCAASGRIFSVYAMGWYRQAPGKERELVAAITRVGSTNYADSVKGRFTISRDNAKNTVFLLMNSLKQEDTAVYYCARTYSTRGYYYWGQGTQVTVSS	high polyreactivity
QVQLVESGGGLVQAGGSLRLSCAASGLISRRNAMGWYRQAPGKERELVAAISTGSSTNYADSVKGRFTISRDNAKNTVYLQMNSLKPEDTAVYYCAATQYWWSTLGIRDDYWGQGTQVTVSS	low polyreactivity
QVQLVESGGGLDQAGGSLRLSCAASGSTFHYYAMGWYRQPHGKERELVAVISSGGSTYYADSVKGRFTISRDNAKNTVYLQMNSLKPEDTAVYYCAAEYFLLAGKGYNGGDYYVYDYWGQGTQVTVSS	low polyreactivity
QVQLVESGGGLVQAGGSLRLSCAASGMGWYRQAPGKERELVAAITSGDSTNYADSVKGRFTISRDNAKNTVYLQMNSLKPEDTAVYYCAADPDYLYAYYYWGQGSQVTVSS	low polyreactivity
QVQLVESGGCLVQAGGSLRLTCAASGRTFYWNTMGWYRQAPGKERELVAAISSSGDSTYYADSVKGRFTISRDNAKNTVYLQMNCLKPEDTAVYYCAAGRRGTSTTWGQGSQVTVSS	high polyreactivity
QVQLVESGGGLVQAGGSLRLSCAASGRIFLTYAMGWYRQAPGKERELVAAISTSGTRTYYADSVKGRFTISRDNAMNTVYLQMNSLKPEDTAVYYCAREKYNYRTYEYWGQGTQVTVSS	high polyreactivity
QVQLVESGGGLVQAGCSLRLSCAASGRIFWDNAMGWYRQAPGKERELVAAIDYRGGNTNYADSVKGRFTISRDNAKNTVYLQMNSLKPEDTAVYYCNAEWAVRYPGYDYWGQGTQVTVSS	low polyreactivity
QVQLVESGGGLVQAGGSLRLSCAASGLTFYSYAMGWYRQAPGKERELVAAISNTGGTNYADSVKGRFTISRDNAKNNVYFQMTSLKPEDTAVYYCNRTFYHYLYRGYGYWGQGTQVTVSS	low polyreactivity
QVQLVESGGGLVQAGGSLRLSCAASGSNFDLNAMGWYRQAPGKERELVAAISSGGGTYYADSVKGRFTISRDNAKTPVYLQMNSLKPEDTAVYYCNRVTRWTYNYWGQGTQVTVSS	high polyreactivity
QVQLVESGGGLVQAGGSLRLICAASGNIFAYYAMGWYRQAPGKERELVAGISRRAGNTYYADSVTGRFTISRDNAKNTVYLHMNSLKREDTAFYYCNKYTKRSGMDYWGQGTQVTVSS	high polyreactivity
QVQLVESGGGLVQAGGSLRLSCAASGSIFRGYTMGWYRQAPGKERELVAAISRSGGSTYYADSVKGRFTISRDNAKNTVYLQMNSLKPEDTAVYYCNVVYFVTTSAGYDYWGQGTQVTVSS	high polyreactivity
EEELVESGGGLVQAGGSLRLTCAASGFIFAYNAMGWYRQAPGKEREFVAAISRSGGSTYYADSVKGRFTISRDNAKNTVYLQMNSLKPEDTAVYYCAARRSVGGYGYWGQGTQVTVSS	high polyreactivity
QVQLVESGGGLVQAGGSLRLSCAASGSTFLRYVMGWYRQAPGKERELVAAIDSGGSTHYADSVKGRFTISRDNAKNTVYLQMNSLKPEDTAVYYCNVDVSSDDWYPSTADFDYWGQGTQVTVSS	high polyreactivity
QVQLVESGGGLFQAGGSLRLSCAASGFTFFIYAMGGSRQAPGKEREFVAAITGSGGSTYYADSVKGRFTISRDNAKNTVYLQLNSLKPEDTAVYYCNKLSYGRSGYWGQGTQVTVSS	high polyreactivity
QVQLVESGGGLVQAGGSLRLSCAASGSNFSDYAMGWYRQAPGKEREFVATITWSGTSTYYADSVKGRFTISRDNAKNTVYLQMNSLKAEDTAVYYCAAELLFWLGLVPGTIFDEFDYWGQGTQVTVSS	low polyreactivity
QVQLVESGGGLVQAGGSLRLSCAASGITFFPYAMGWYRQAPGKERELVASISDGGGTNYAASVKGRFTISRDNAKNTVYLQMNSLKPEDTAVYYCATDASTYAYYGGDYWGQGTQVTVSS	low polyreactivity
QVQLVESGGGLVQAGGSLRLSCAASGITFSGYDMGWYRQAPWKERELVASSTYYADSVKGRFTISRDNAKNTVYLQMNSLKPEDTAVYYCAADSPGDFGGYGFDYWGQGTQVTVSS	high polyreactivity
QVQLVESGGGLVQAGGSLRLSCDASGRIFYGYAMGWYRQAPGKERELVAAITYIGGTYYADSVKGRFTISRDNAKNTVYLQMNSMKPEDTAVYYCNALYRYLYRSGDFWGQGSQVTVSS	low polyreactivity
QVQLVESGGGLVQAGGSLRLSCAASGSTFDPYAMGWYRQAPGKDRELVAAISSDGSTYYADSVKGRFTISRDNAKNTVYLQMNSLKPEYTAVYYCAADPFYWYRSVRGEYWGQGTQVTVSS	low polyreactivity
QVQLVESGGGLVQAGGSLRLSCAASGFIFTRYAMGWYRQAPGKEREFVARIDSSGGSTYYADSVKGRFTISRDNAKNTVYLQMNSLKPEDTAVYYCAAVGYRFGSYYWGQGTKVTVSS	high polyreactivity
QVQLVESGGGLVQAGGSLRLSCAASGRIFRSNAMGWYRQAPGKERELVATITRSGGSTYYADSVKGRFTISRDNAKNTVYLQMNSLKPEDTAVYYCNAVFGSAYRAQRIMGYWGQGTQVTVSS	high polyreactivity

Source: the nanobody polyreactivity screen of Harvey et al. (2022)
